Paper PMC12784347, “Structural insights into substrate binding, residue contributions, and catalytic mechanism of phosphopantetheine adenylyltransferase from Helicobacter pylori” (Bioscience Reports, 2025)

Key:
[1] = molecular target: the molecule itself; assay: crystal structure; HpPPAT:ATP; reservoir 17% PEG1000, 0.1 M citrate phosphate pH 4.2, 1.5 mM ATP, 0.2 M Li2SO4; space group P1, 12 copies in the asymmetric unit; 2.12 Å
[2] = molecular target: the molecule itself; assay: crystal structure; apo HpPPAT; hanging-drop vapor diffusion, 293K, protein 15 mg/ml in 20 mM Tris-HCl pH 7.9, 100 mM NaCl; reservoir 2.5 M NaCl, 0.1 M sodium acetate pH 4.5, 0.2 M Li2SO4; space group H3, two copies in the asymmetric unit; 1.98 Å
[3] = molecular target: the molecule itself; assay: crystal structure; HpPPAT P8A:dPCoA; reservoir 18% PEG550 MME, 0.2 M KF pH 7.4; space group P2(1)2(1)2, hexamer; 2.00 Å

Protein | stoichiometry N [1] | stoichiometry N [2] | stoichiometry N [3]
Helicobacter pylori phosphopantetheine adenylyltransferase, wild type (enzyme, Phosphopantetheine adenylyltransferase (PPAT; EC 2.7.3.3) of Helicobacter pylori; each monomer in the crystal structures comprises 157 residues; also called HpPPAT; WT HpPPAT) MQKIGIYPGTFDPVTNGHIDIIHRSSELFEKLIVAVAHSSAKNPMFSLDERLKMIQLATKSFKNVECVAFEGLLANLAKEYHCKVLVRGLRVVSDFEYELQMGYANKSLNHELETLYFMPTLQNAFISSSIVRSIIAHKGDASHLVPKEIYPLISKA | 12 | 2 | 
Helicobacter pylori phosphopantetheine adenylyltransferase P8A mutant (enzyme, Phosphopantetheine adenylyltransferase (PPAT; EC 2.7.3.3) of Helicobacter pylori with Pro8 replaced by alanine; also called HpPPAT P8A; HpPPAT mutant P8A) MQKIGIYAGTFDPVTNGHIDIIHRSSELFEKLIVAVAHSSAKNPMFSLDERLKMIQLATKSFKNVECVAFEGLLANLAKEYHCKVLVRGLRVVSDFEYELQMGYANKSLNHELETLYFMPTLQNAFISSSIVRSIIAHKGDASHLVPKEIYPLISKA |  |  | 6
